{"source": "the Immune Epitope Database (IEDB)", "key": {"HLA-A*30:01": {"molecular_target": "HLA-A*30:01", "experiment": "IEDB peptide-MHC binding, purified MHC/competitive/radioactivity; filed as Kd, often an IC50 or EC50 that approximates it; ≥ and ≤ were set here for values at or beyond the usual limits of such assays"}, "HLA-A*69:01": {"molecular_target": "HLA-A*69:01", "experiment": "IEDB peptide-MHC binding, purified MHC/direct/fluorescence; filed as Kd, often an IC50 or EC50 that approximates it; ≥ and ≤ were set here for values at or beyond the usual limits of such assays"}, "HLA-B*58:01": {"molecular_target": "HLA-B*58:01", "experiment": "IEDB peptide-MHC binding, purified MHC/direct/fluorescence; filed as Kd, often an IC50 or EC50 that approximates it; ≥ and ≤ were set here for values at or beyond the usual limits of such assays"}, "HLA-A*02:01 [1]": {"molecular_target": "HLA-A*02:01", "experiment": "IEDB peptide-MHC binding, purified MHC/competitive/fluorescence; ≥ and ≤ were set here for values at or beyond the usual limits of such assays"}, "HLA-A*01:01": {"molecular_target": "HLA-A*01:01", "experiment": "IEDB peptide-MHC binding, purified MHC/direct/fluorescence; filed as Kd, often an IC50 or EC50 that approximates it; ≥ and ≤ were set here for values at or beyond the usual limits of such assays", "conditions": "source organism: Yersinia pestis"}, "HLA-A*02:01 [2]": {"molecular_target": "HLA-A*02:01", "experiment": "IEDB peptide-MHC binding, purified MHC/direct/fluorescence; filed as Kd, often an IC50 or EC50 that approximates it; ≥ and ≤ were set here for values at or beyond the usual limits of such assays"}, "HLA-A*03:01": {"molecular_target": "HLA-A*03:01", "experiment": "IEDB peptide-MHC binding, purified MHC/direct/fluorescence; filed as Kd, often an IC50 or EC50 that approximates it; ≥ and ≤ were set here for values at or beyond the usual limits of such assays"}, "HLA-A*11:01": {"molecular_target": "HLA-A*11:01", "experiment": "IEDB peptide-MHC binding, purified MHC/direct/fluorescence; filed as Kd, often an IC50 or EC50 that approximates it; ≥ and ≤ were set here for values at or beyond the usual limits of such assays", "conditions": "source organism: SARS-CoV1"}, "HLA-B*15:01": {"molecular_target": "HLA-B*15:01", "experiment": "IEDB peptide-MHC binding, purified MHC/direct/fluorescence; filed as Kd, often an IC50 or EC50 that approximates it; ≥ and ≤ were set here for values at or beyond the usual limits of such assays", "conditions": "source organism: SARS-CoV1"}, "HLA-B*27:05": {"molecular_target": "HLA-B*27:05", "experiment": "IEDB peptide-MHC binding, purified MHC/direct/fluorescence; filed as Kd, often an IC50 or EC50 that approximates it; ≥ and ≤ were set here for values at or beyond the usual limits of such assays", "conditions": "source organism: SARS-CoV1"}, "HLA-B*07:02": {"molecular_target": "HLA-B*07:02", "experiment": "IEDB peptide-MHC binding, purified MHC/direct/fluorescence; filed as Kd, often an IC50 or EC50 that approximates it; ≥ and ≤ were set here for values at or beyond the usual limits of such assays", "conditions": "source organism: Homo sapiens"}, "HLA-B*40:01": {"molecular_target": "HLA-B*40:01", "experiment": "IEDB peptide-MHC binding, purified MHC/direct/fluorescence; filed as Kd, often an IC50 or EC50 that approximates it; ≥ and ≤ were set here for values at or beyond the usual limits of such assays", "conditions": "source organism: Mycobacterium tuberculosis"}, "HLA-A*02:01 [3]": {"molecular_target": "HLA-A*02:01", "experiment": "IEDB peptide-MHC binding, purified MHC/competitive/fluorescence; filed as Kd, often an IC50 or EC50 that approximates it; ≥ and ≤ were set here for values at or beyond the usual limits of such assays"}, "HLA-A*24:02": {"molecular_target": "HLA-A*24:02", "experiment": "IEDB peptide-MHC binding, purified MHC/competitive/radioactivity; filed as Kd, often an IC50 or EC50 that approximates it; ≥ and ≤ were set here for values at or beyond the usual limits of such assays", "conditions": "source organism: Dengue virus 3 Martinique/1243/1999"}, "[4]": {"conditions": "source organism: Vaccinia virus WR"}, "[5]": {"conditions": "source organism: Human immunodeficiency virus 1"}, "[6]": {"conditions": "source organism: Zaire ebolavirus"}, "[7]": {"conditions": "source organism: Mycobacterium tuberculosis"}, "[8]": {"conditions": "source organism: Vaccinia virus"}, "[9]": {"conditions": "source organism: Sudan ebolavirus"}, "[10]": {"conditions": "source organism: Yersinia pestis"}, "[11]": {"conditions": "source organism: Bacillus anthracis"}, "[12]": {"conditions": "source organism: Giardia lamblia ATCC 50803"}}}
{"sequence": "KQKMGPIYA", "values": [{"measurement": "Kd", "setting": "HLA-A*30:01; [4]", "value": 21.7, "unit": "nM"}]}
{"sequence": "NANPDCKTI", "values": [{"measurement": "Kd", "setting": "HLA-A*69:01; [5]", "value": 7640, "unit": "nM"}, {"measurement": "Kd", "setting": "HLA-B*58:01; [5]", "value": 9310, "unit": "nM"}]}
{"sequence": "AMVQVHSQG", "values": [{"measurement": "IC50", "setting": "HLA-A*02:01 [1]; [6]", "value": "≥ 102000", "unit": "nM"}]}
{"sequence": "RTHTALIFL", "values": [{"measurement": "Kd", "setting": "HLA-A*30:01; [4]", "value": 0.704, "unit": "nM"}]}
{"sequence": "AINGFVLPK", "values": [{"measurement": "Kd", "setting": "HLA-A*01:01", "value": "≥ 20000", "unit": "nM"}]}
{"sequence": "RIRQGKFIK", "values": [{"measurement": "Kd", "setting": "HLA-A*30:01; [4]", "value": 4.79, "unit": "nM"}]}
{"sequence": "VLPPEINSL", "values": [{"measurement": "Kd", "setting": "HLA-A*02:01 [2]; [7]", "value": 71.4, "unit": "nM"}]}
{"sequence": "FIPENQRTV", "values": [{"measurement": "IC50", "setting": "HLA-A*02:01 [1]; source organism: Human alphaherpesvirus 1 strain 17", "value": 4220, "unit": "nM"}]}
{"sequence": "LLSQYVDDA", "values": [{"measurement": "IC50", "setting": "HLA-A*02:01 [1]; [8]", "value": 23300, "unit": "nM"}]}
{"sequence": "QLSDHPMVK", "values": [{"measurement": "Kd", "setting": "HLA-A*03:01; source organism: Vibrio parahaemolyticus", "value": 146, "unit": "nM"}]}
{"sequence": "MNAPDDLVL", "values": [{"measurement": "IC50", "setting": "HLA-A*02:01 [1]; [6]", "value": "≥ 162000", "unit": "nM"}]}
{"sequence": "TLFKIDNNT", "values": [{"measurement": "IC50", "setting": "HLA-A*02:01 [1]; [9]", "value": 18700, "unit": "nM"}]}
{"sequence": "FLEQGGFKA", "values": [{"measurement": "Kd", "setting": "HLA-A*02:01 [2]; [10]", "value": 64.3, "unit": "nM"}, {"measurement": "Kd", "setting": "HLA-A*69:01; [10]", "value": 1990, "unit": "nM"}]}
{"sequence": "FLIDLAFLI", "values": [{"measurement": "Kd", "setting": "HLA-A*02:01 [2]; source organism: Camelpox virus M-96", "value": 3, "unit": "nM"}]}
{"sequence": "TGVGKTSQV", "values": [{"measurement": "IC50", "setting": "HLA-A*02:01 [1]; source organism: Variola virus", "value": 36100, "unit": "nM"}]}
{"sequence": "KMKELSPRW", "values": [{"measurement": "Kd", "setting": "HLA-A*03:01; source organism: SARS-CoV1", "value": 5750, "unit": "nM"}, {"measurement": "Kd", "setting": "HLA-A*11:01", "value": "≥ 30200", "unit": "nM"}, {"measurement": "Kd", "setting": "HLA-B*15:01", "value": 1200, "unit": "nM"}, {"measurement": "Kd", "setting": "HLA-B*27:05", "value": 5250, "unit": "nM"}, {"measurement": "Kd", "setting": "HLA-B*58:01; source organism: SARS-CoV1", "value": 420, "unit": "nM"}]}
{"sequence": "FIDNPLPNQ", "values": [{"measurement": "IC50", "setting": "HLA-A*02:01 [1]; [9]", "value": 28100, "unit": "nM"}]}
{"sequence": "NLHYWTAQE", "values": [{"measurement": "IC50", "setting": "HLA-A*02:01 [1]; [9]", "value": "≥ 189000", "unit": "nM"}]}
{"sequence": "RYRCSFAVA", "values": [{"measurement": "Kd", "setting": "HLA-A*30:01; [4]", "value": 0.00377, "unit": "nM"}]}
{"sequence": "SAMVQVHSQ", "values": [{"measurement": "IC50", "setting": "HLA-A*02:01 [1]; [6]", "value": "≥ 609000", "unit": "nM"}]}
{"sequence": "LLYKQLNFT", "values": [{"measurement": "Kd", "setting": "HLA-A*02:01 [2]; [11]", "value": 1180, "unit": "nM"}, {"measurement": "Kd", "setting": "HLA-A*69:01; [11]", "value": "≥ 20600", "unit": "nM"}]}
{"sequence": "RPASAGAML", "values": [{"measurement": "Kd", "setting": "HLA-A*69:01; source organism: Homo sapiens", "value": 8380, "unit": "nM"}, {"measurement": "Kd", "setting": "HLA-B*07:02", "value": 34, "unit": "nM"}]}
{"sequence": "VLQQVSNGV", "values": [{"measurement": "Kd", "setting": "HLA-A*69:01; [7]", "value": "≥ 20000", "unit": "nM"}]}
{"sequence": "LEYDGFADF", "values": [{"measurement": "Kd", "setting": "HLA-B*40:01", "value": 42.4, "unit": "nM"}]}
{"sequence": "KVSPPSLGK", "values": [{"measurement": "Kd", "setting": "HLA-A*30:01; [4]", "value": 1.12, "unit": "nM"}]}
{"sequence": "TSSDPGTNT", "values": [{"measurement": "IC50", "setting": "HLA-A*02:01 [1]; [6]", "value": "≥ 251000", "unit": "nM"}]}
{"sequence": "LSNGMLRFA", "values": [{"measurement": "IC50", "setting": "HLA-A*02:01 [1]; [8]", "value": 5560, "unit": "nM"}]}
{"sequence": "YFLESNFFI", "values": [{"measurement": "Kd", "setting": "HLA-A*02:01 [2]; [12]", "value": 0.6, "unit": "nM"}, {"measurement": "Kd", "setting": "HLA-A*69:01; [12]", "value": 2.2, "unit": "nM"}]}
{"sequence": "IPLGVIHNS", "values": [{"measurement": "IC50", "setting": "HLA-A*02:01 [1]; [6]", "value": "≥ 185000", "unit": "nM"}]}
{"sequence": "DEAHFTDPAS", "values": [{"measurement": "Kd", "setting": "HLA-A*30:01; source organism: Dengue virus 2 Jamaica/1409/1983", "value": 13900, "unit": "nM"}]}
{"sequence": "YGLVSKFMS", "values": [{"measurement": "IC50", "setting": "HLA-A*02:01 [1]; [4]", "value": 25600, "unit": "nM"}]}
{"sequence": "NLWNGIVPT", "values": [{"measurement": "Kd", "setting": "HLA-A*02:01 [3]; source organism: Vaccinia virus Copenhagen", "value": 0.2, "unit": "nM"}]}
{"sequence": "KHGEYAPFA", "values": [{"measurement": "IC50", "setting": "HLA-A*02:01 [1]; [6]", "value": 28300, "unit": "nM"}]}
{"sequence": "RSLKAFFSW", "values": [{"measurement": "Kd", "setting": "HLA-B*58:01; source organism: Mammarenavirus machupoense", "value": 29.4, "unit": "nM"}]}
{"sequence": "KHMIAGVFF", "values": [{"measurement": "Kd", "setting": "HLA-A*24:02", "value": 837, "unit": "nM"}]}
{"sequence": "HVYDFEPYY", "values": [{"measurement": "Kd", "setting": "HLA-A*30:01; [4]", "value": 27.4, "unit": "nM"}]}
{"sequence": "FLHEDTEKI", "values": [{"measurement": "Kd", "setting": "HLA-A*02:01 [3]; source organism: unidentified", "value": 20, "unit": "nM"}]}
